Measured values: paper PMC8191317, “Structural and functional analysis of lignostilbene dioxygenases from Sphingobium sp. SYK-6” (The Journal of Biological Chemistry, 2021)

T1: LSD2 (Sphingobium sp. SYK-6, UniProt G2IQG5)
T1 construct: gene SLG_36640; pET41b, E. coli BL21(DE3) lysate, co-produced with GroEL/GroES
T1 sequence (G2IQG5 1-490): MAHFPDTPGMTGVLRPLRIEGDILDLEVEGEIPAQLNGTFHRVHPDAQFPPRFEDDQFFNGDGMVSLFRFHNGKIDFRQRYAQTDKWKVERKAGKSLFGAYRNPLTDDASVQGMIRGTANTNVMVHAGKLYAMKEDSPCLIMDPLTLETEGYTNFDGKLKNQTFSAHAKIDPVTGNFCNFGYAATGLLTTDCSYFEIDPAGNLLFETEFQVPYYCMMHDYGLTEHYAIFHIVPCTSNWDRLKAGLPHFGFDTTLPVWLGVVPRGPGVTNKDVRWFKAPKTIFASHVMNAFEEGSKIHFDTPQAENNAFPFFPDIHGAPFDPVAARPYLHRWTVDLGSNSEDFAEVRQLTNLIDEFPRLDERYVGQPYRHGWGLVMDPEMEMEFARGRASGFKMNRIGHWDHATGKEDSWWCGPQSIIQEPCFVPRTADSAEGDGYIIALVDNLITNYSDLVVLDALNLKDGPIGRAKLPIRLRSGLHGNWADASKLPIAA

T2: LSD3 (Sphingobium sp. SYK-6, UniProt G2IPX7)
T2 construct: gene SLG_11300; pET41b, E. coli BL21(DE3) lysate
T2 sequence (G2IPX7 1-491): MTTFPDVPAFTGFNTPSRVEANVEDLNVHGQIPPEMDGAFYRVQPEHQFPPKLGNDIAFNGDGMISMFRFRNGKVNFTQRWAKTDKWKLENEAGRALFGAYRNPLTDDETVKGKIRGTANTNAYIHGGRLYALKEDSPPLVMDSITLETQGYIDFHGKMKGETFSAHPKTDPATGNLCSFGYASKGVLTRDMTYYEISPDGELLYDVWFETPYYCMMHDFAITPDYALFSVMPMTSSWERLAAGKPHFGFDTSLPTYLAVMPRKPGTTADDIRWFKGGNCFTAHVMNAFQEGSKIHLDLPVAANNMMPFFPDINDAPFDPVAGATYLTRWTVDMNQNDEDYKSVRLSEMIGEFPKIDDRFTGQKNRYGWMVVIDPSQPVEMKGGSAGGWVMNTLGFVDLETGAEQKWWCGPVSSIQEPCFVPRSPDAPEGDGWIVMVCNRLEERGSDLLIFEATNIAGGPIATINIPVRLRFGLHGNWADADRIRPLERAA


How the values were obtained:
LSD2 = molecular target: T1, LSD2; test: oxygraph O2 consumption, E. coli lysate; format: biochemical; details: 100 μM substrate
LSD3 = molecular target: T2, LSD3; test: oxygraph O2 consumption, E. coli lysate; format: biochemical; details: 100 μM substrate
[1] = molecular target: LSD4 (lignostilbene-α,β-dioxygenase 4) from Sphingobium sp. SYK-6 (Sphingobium sp. SYK-6); test: SEC-MALS; LSD4 at 2 mg/ml in 20 mM HEPES, pH 7.5, 100 mM NaCl, Superdex 75 10/300 GL, 0.4 ml/min, room temperature
[2] = substrate: COc1cc(/C=C/c2ccc(O)cc2)cc(OC)c1; test: O2 electrode (oxygraph) steady-state kinetics; format: biochemical, Sphingobium sp. SYK-6; details: air-saturated HEPES I = 0.1 M, pH 7.5, 25 °C
Excerpt: (§1) O2 electrode (oxygraph) steady-state kinetics on LSD4

[3] = substrate: COc1cc(/C=C/c2cc(/C=C/C(=O)O)cc(OC)c2O)ccc1O; test: O2 electrode (oxygraph) steady-state kinetics; format: biochemical, Sphingobium sp. SYK-6; details: air-saturated HEPES I = 0.1 M, pH 7.5, 25 °C
Excerpt: as §1

[4] = substrate: COc1cc(/C=C/c2ccc(O)c(OC)c2)ccc1O; test: O2 electrode (oxygraph) steady-state kinetics; format: biochemical, Sphingobium sp. SYK-6; details: air-saturated HEPES I = 0.1 M, pH 7.5, 25 °C
Excerpt: as §1

[5] = substrate: Oc1ccc(/C=C/c2cc(O)cc(O)c2)cc1; test: O2 electrode (oxygraph) steady-state kinetics; format: biochemical, Sphingobium sp. SYK-6; details: air-saturated HEPES I = 0.1 M, pH 7.5, 25 °C
Excerpt: as §1

Molecule | relative activity (LSD2) | relative activity (LSD3) | stoichiometry N [1] | Km [2] | kcat [2] | kcat/Km [2] | Km [3] | kcat [3] | kcat/Km [3] | Km [4] | kcat [4] | kcat/Km [4] | Km [5] | kcat [5] | kcat/Km [5]
COc1cc(/C=C/c2cc(/C=C/C(=O)O)cc(OC)c2O)ccc1O [compound 1, 3-(4-hydroxy-3-(4-hydroxy-3-methoxystyryl)-5-methoxyphenyl) acrylate] | lysates containing LSD2, LSD3, or LSD4 preferentially cleaved DCA-S over lignostilbene | lysates containing LSD2, LSD3, or LSD4 preferentially cleaved DCA-S over lignostilbene | – | – | – | – | – | – | – | – | – | – | – | – | –
LSD4 (lignostilbene-α,β-dioxygenase 4) from Sphingobium sp. SYK-6 (enzyme) | – | – | 2 | – | – | – | – | – | – | – | – | – | – | – | –
LSD4 (Sphingobium sp. SYK-6) (protein, residues 2-489 modelled; Fe2+ enzyme, Co-LSD4 for complexes) MAHFPDTPAFTGFNAPSRIECDIPNLVHEGTIPPELNGAFFRVQPDPQFPPRLGDDISFNGDGMITRFHIHDGQCDIKQRWAKTNKWKLENAAGKALFGSYRNPLTDDESVKGEYRSTANTNAFVFAGKLWAMKEDSPSLTMDPATMETFGFEKFGGKMTGQTFTAHPKVDPLTGNMVAIGYAASGLCTDDVCLYEISPDGELIYEAWFKVPYYCMMHDFGVTKDYLVLHIVPSIGSWDRLEKGLPHFGFDTTLPVYLGIIPRRADLKQEDIRWFKRENCFASHVMNAFQEGTKVHVDVPEAENNMFPFFPDVHGAPFNPQQAMSRLTRWTVDMASNSDEFDSVTRLTETAGEFPRIDDRMTGLPYRYGWMLEMDMKRPVELKGGSAGGFLMNCLFLKDHQTGAEQHWWCGPTSSLQEPAFIPRSKDAPEGDGWIVQVCNRLADHKSDLLIFEALDIEKGPVATVHLPFALRFGLHGNWANAEEIGLAA | – | – | – | 15 ± 2 µM | 1.9 ± 0.1 s⁻¹ | 130000 ± 10000 M⁻¹ s⁻¹ | 12 ± 1 µM | 11 ± 1 s⁻¹ | 900000 ± 100000 M⁻¹ s⁻¹ | 13 ± 1 µM | 18 ± 1 s⁻¹ | 1.4e+06 ± 100000 M⁻¹ s⁻¹ | 22 ± 2 µM | 2.1 ± 0.1 s⁻¹ | 90000 ± 10000 M⁻¹ s⁻¹
LSD4 (Sphingobium sp. SYK-6; S283A) (protein, residues 2-489 modelled; Fe2+ enzyme, Co-LSD4 for complexes) MAHFPDTPAFTGFNAPSRIECDIPNLVHEGTIPPELNGAFFRVQPDPQFPPRLGDDISFNGDGMITRFHIHDGQCDIKQRWAKTNKWKLENAAGKALFGSYRNPLTDDESVKGEYRSTANTNAFVFAGKLWAMKEDSPSLTMDPATMETFGFEKFGGKMTGQTFTAHPKVDPLTGNMVAIGYAASGLCTDDVCLYEISPDGELIYEAWFKVPYYCMMHDFGVTKDYLVLHIVPSIGSWDRLEKGLPHFGFDTTLPVYLGIIPRRADLKQEDIRWFKRENCFAAHVMNAFQEGTKVHVDVPEAENNMFPFFPDVHGAPFNPQQAMSRLTRWTVDMASNSDEFDSVTRLTETAGEFPRIDDRMTGLPYRYGWMLEMDMKRPVELKGGSAGGFLMNCLFLKDHQTGAEQHWWCGPTSSLQEPAFIPRSKDAPEGDGWIVQVCNRLADHKSDLLIFEALDIEKGPVATVHLPFALRFGLHGNWANAEEIGLAA | – | – | – | – | – | – | 4.6 ± 0.5 µM | 4.1 ± 0.1 s⁻¹ | 900000 ± 100000 M⁻¹ s⁻¹ | 10 ± 1 µM | 15.3 ± 0.4 s⁻¹ | 1.5e+06 ± 100000 M⁻¹ s⁻¹ | – | – | –
LSD4 (Sphingobium sp. SYK-6; S283F) (protein, residues 2-489 modelled; Fe2+ enzyme, Co-LSD4 for complexes) MAHFPDTPAFTGFNAPSRIECDIPNLVHEGTIPPELNGAFFRVQPDPQFPPRLGDDISFNGDGMITRFHIHDGQCDIKQRWAKTNKWKLENAAGKALFGSYRNPLTDDESVKGEYRSTANTNAFVFAGKLWAMKEDSPSLTMDPATMETFGFEKFGGKMTGQTFTAHPKVDPLTGNMVAIGYAASGLCTDDVCLYEISPDGELIYEAWFKVPYYCMMHDFGVTKDYLVLHIVPSIGSWDRLEKGLPHFGFDTTLPVYLGIIPRRADLKQEDIRWFKRENCFAFHVMNAFQEGTKVHVDVPEAENNMFPFFPDVHGAPFNPQQAMSRLTRWTVDMASNSDEFDSVTRLTETAGEFPRIDDRMTGLPYRYGWMLEMDMKRPVELKGGSAGGFLMNCLFLKDHQTGAEQHWWCGPTSSLQEPAFIPRSKDAPEGDGWIVQVCNRLADHKSDLLIFEALDIEKGPVATVHLPFALRFGLHGNWANAEEIGLAA | – | – | – | – | – | – | 2.7 ± 0.5 µM | 0.035 ± 0.001 s⁻¹ | 13000 ± 5000 M⁻¹ s⁻¹ | 8.5 ± 0.7 µM | 0.14 ± 0.01 s⁻¹ | 16000 ± 2000 M⁻¹ s⁻¹ | – | – | –
